Assay results reported in article PMC5980995, “An allostatic mechanism for M2 pyruvate kinase as an amino-acid sensor” (Biochemical Journal, 2018).

Molecular target: M2 isoenzyme of pyruvate kinase (M2PYK), human, N-terminal His6 tag (human) (UniProt P14618)
Assay: SEC; analytical gel chromatography, Superdex 200 PC 3.2/30, 0.1 ml/min; protein diluted from 20 mg/ml to 0.1 mg/ml and incubated up to 12 h (overnight) at room temperature in PBS-CM pH 7.4, without or with 10 mM serine, phenylalanine, alanine or tryptophan; apparent constant, tetramer to monomers

M2 isoenzyme of pyruvate kinase (M2PYK), human, N-terminal His6 tag, P14618 1-531 (enzyme; other documents disagree on this pair), sequence (P14618 whole entry): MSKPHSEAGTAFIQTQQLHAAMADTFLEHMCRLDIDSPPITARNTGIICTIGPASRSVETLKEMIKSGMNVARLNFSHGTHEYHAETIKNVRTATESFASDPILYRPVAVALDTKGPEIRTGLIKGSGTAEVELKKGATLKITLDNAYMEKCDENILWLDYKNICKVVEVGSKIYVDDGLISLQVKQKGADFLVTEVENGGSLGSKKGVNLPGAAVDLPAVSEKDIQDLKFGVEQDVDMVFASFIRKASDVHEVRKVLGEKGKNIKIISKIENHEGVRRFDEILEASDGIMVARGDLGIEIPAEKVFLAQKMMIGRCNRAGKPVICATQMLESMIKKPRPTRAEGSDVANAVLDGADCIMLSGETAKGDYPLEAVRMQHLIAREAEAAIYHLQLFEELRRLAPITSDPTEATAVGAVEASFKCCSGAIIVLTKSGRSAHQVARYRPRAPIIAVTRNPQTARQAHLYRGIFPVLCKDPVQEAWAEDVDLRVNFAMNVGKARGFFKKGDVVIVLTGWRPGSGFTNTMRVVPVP

## M2 isoenzyme of pyruvate kinase (M2PYK), human, N-terminal His6 tag, P14618 1-531 (enzyme; other documents disagree on this pair)
  Kd: 900 nM
